{"source": "paper PMC9418156", "proteins": {"B1": {"name": "CD98 (SLC3A2, 4F2hc): Qm (protein)", "parent chain": "MELQPPEASIAVVSIPRQLPGSHSEAGVQGLSAGDDSELGSHCVAQTGLELLASGDPLPSASQNAEMIETGSDCVTQAGLQLLASSDPPALASKNAEVTGTMSQDTEVDMKEVELNELEPEKQPMNAASGAAMSLAGAEKNGLVKIKVAEDEAEAAAAAKFTGLSKEELLKVAGSPGWVRTRWALLLLFWLGWLGMLAGAVVIIVRAPRCRELPAQKWWHTGALYRIGDLQAFQGHGAGNLAGLKGRLDYLSSLKVKGLVLGPIHKNQKDDVAQTDLLQIDPNFGSKEDFDSLLQSAKKKSIRVILDLTPNYRGENSWFSTQVDTVATKVKDALEFWLQAGVDGFQVRDIENLKDASSFLAEWQNITKGFSEDRLLIAGTNSSDLQQILSLLESNKDLLLTSSYLSDSGSTGEHTKSLVTQYLNATGNRWCSWSLSQARLLTSFLPAQLLRLYQLMLFTLPGTPVFSYGDEIGLDAAALPGQPMEAPVMLWDESSFPDIPGAVSANMTVKGQSEDPGSLLSLFRRLSDQRSKERSLLHGDFHAFSAGPGLFSYIRHWDQNERFLVVLNFGDVGLSAGLQASDLPASASLPAKADLLLSTQPGREEGSPLELERLKLEPHEGLLLRFPYAA"}, "B2": {"name": "CD98 (SLC3A2, 4F2hc): tunicamycin (protein)", "parent chain": "B1 parent chain"}, "B3": {"name": "CD98 (SLC3A2, 4F2hc): Qm (N365/381/424/506Q) (protein)", "parent chain": "B1 parent chain"}, "B4": {"name": "CD98 (SLC3A2, 4F2hc): N424Q (protein)", "parent chain": "B1 parent chain"}, "B5": {"name": "CD98 (SLC3A2, 4F2hc): N381Q (protein)", "parent chain": "B1 parent chain"}, "B6": {"name": "CD98 (SLC3A2, 4F2hc): Dm (N381/424Q) (protein)", "parent chain": "B1 parent chain"}, "B7": {"name": "CD98 (SLC3A2, 4F2hc): N506Q (protein)", "parent chain": "B1 parent chain"}, "B8": {"name": "CD98 (SLC3A2, 4F2hc): N365Q (protein)", "parent chain": "B1 parent chain"}, "B9": {"name": "CD98 (SLC3A2, 4F2hc): Tm (N365/381/424Q) (protein)", "parent chain": "B1 parent chain"}}, "key": {"[1]": {"assay": "cycloheximide chase, anti-FLAG blot", "details": "glycan lost; control: wild type"}, "[2]": {"assay": "surface biotinylation, anti-LAT1 blot", "details": "glycan lost; control: wild type"}, "[3]": {"assay": "brefeldin A washout, confocal time course", "details": "glycan lost; control: wild type"}, "[4]": {"assay": "cell surface biotinylation, anti-FLAG blot", "details": "glycan lost; control: wild type"}, "[5]": {"assay": "co-transfection with HA-LAT1, brefeldin washout, confocal", "details": "glycan lost; control: wild type"}, "[6]": {"assay": "tunicamycin then surface biotinylation (Fig. S1)", "details": "glycan lost; control: vehicle (DMSO)"}, "[7]": {"assay": "confocal, surface anti-CD98 vs anti-FLAG, HEK293", "details": "glycan lost; control: wild type"}}, "data": [{"protein": "B1", "values": [{"measurement": "degradation_or_half_life, other: percent of initial protein after 6 h", "setting": "[1]", "value": "decreases, <20 vs >50"}, {"measurement": "other: routing of partner LAT1 to plasma membrane", "setting": "[2]", "value": "abolishes"}, {"measurement": "localisation_or_trafficking", "setting": "[3]", "value": "decreases"}, {"measurement": "localisation_or_trafficking", "setting": "[4]", "value": "decreases"}, {"measurement": "other: routing of partner LAT1 to plasma membrane", "setting": "[5]", "value": "decreases"}]}, {"protein": "B2", "values": [{"measurement": "localisation_or_trafficking", "setting": "[6]", "value": "decreases"}]}, {"protein": "B3", "values": [{"measurement": "localisation_or_trafficking", "setting": "[7]", "value": "decreases"}]}, {"protein": "B4", "values": [{"measurement": "localisation_or_trafficking", "setting": "[7]", "value": "no change"}]}, {"protein": "B5", "values": [{"measurement": "localisation_or_trafficking", "setting": "[7]", "value": "no change"}]}, {"protein": "B6", "values": [{"measurement": "localisation_or_trafficking", "setting": "[7]", "value": "changes"}]}, {"protein": "B7", "values": [{"measurement": "localisation_or_trafficking", "setting": "[7]", "value": "no change"}]}, {"protein": "B8", "values": [{"measurement": "localisation_or_trafficking", "setting": "[7]", "value": "no change"}]}, {"protein": "B9", "values": [{"measurement": "localisation_or_trafficking", "setting": "[7]", "value": "changes"}]}]}
